Experimental data reported in paper PMC11303627 (Cancer Immunology, Immunotherapy : CII, 2024).

B1: TF8-5G9 anti-TF scFvFc (scFv, V domains shown)
VH: EIQLQQSGAELVRPGALVKLSCKASGFNIKDYYMHWVKQRPEQGLEWIGLIDPENGNTIYDPKFQGKASITADTSSNTAYLQLSSLTSEDTAVYYCARDNSYYFDYWGQGTTLTVSS
VL: DIKMTQSPSSMYASLGERVTITCKASQDIRKYLNWYQQKPWKSPKTLIYYATSLADGVPSRFSGSGSGQDYSLTISSLESDDTATYYCLQHGESPYTFGGGTKLEIN
notes: also called TF8-5G9 scFvFc; TF85G9 scFvFc; source: Expi293F, transfected (pcDNA3.1(-)), purified from supernatant (Protein A, then SEC on Superdex 200 after 2 mM DTT)
B2: hATR-5 scFvFc (scFv, V domains shown)
VH: QVQLLESGAVLARPGTSVKISCKASGFNIKDYYMHWVKQRPGQGLEWIGGNDPANGHSMYDPKFQGRVTITADTSTSTVFMELSSLRSEDTAVYYCARDSGYAMDYWGQGTLVTVSS
VL: DIQMTQSPSSLSASVGDRVTITCKASQDIKSFLSWYQQKPEKAPKSLIYYATSLADGVPSRFSGSGSGTDYTLTISSLQPEDFATYYCLQHGESPYTFGGGTKVEIK
notes: source: Expi293F, transfected (pcDNA3.1(-)), purified from supernatant (Protein A, then SEC on Superdex 200 after 2 mM DTT)

Target: T1, human TF-Fc (Homo sapiens, UniProt P13726)
T1 construct: tissue factor (TF; CD142), human; Construct limits may be in Supplementary file1; also called human tissue factor Fc fusion protein; HuTF; source: Expi293F, transfected (pcDNA3.1(-), Genscript), purified from supernatant (Protein A; for SPR also SEC on Superdex 200 after 2 mM DTT)
T1 sequence (P13726 33-251): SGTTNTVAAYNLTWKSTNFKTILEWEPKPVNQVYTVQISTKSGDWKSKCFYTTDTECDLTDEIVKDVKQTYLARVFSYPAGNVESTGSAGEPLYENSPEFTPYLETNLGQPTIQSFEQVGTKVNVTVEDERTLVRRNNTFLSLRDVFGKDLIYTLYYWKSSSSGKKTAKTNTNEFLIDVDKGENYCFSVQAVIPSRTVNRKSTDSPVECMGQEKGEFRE
Assay: SPR; human TF-Fc amine-coupled to a CM5 chip (target 500 RU); scFvFc flowed over at 18.75-3.125 nM in PBS-EP (0.01% Tween20, 300 mM NaCl PBS, pH 7.4), 30 µL/min, contact 180 s, dissociation 600 s; 25 °C; Biacore X100; global fit, 1:1 binding model
Conditions: both partners purified

Row | Binder | Kd [nM]
1 | B1 | 0.37
2 | B2 | 0.46
